The target in this assay is MVP3-5 (residues 102-274 of human MVP), wild type (human, UniProt Q14764 102-274). Briefly: SEC.

We go through one molecule from publication doi:10.1101/2024.06.27.601040 (bioRxiv, 2024).

Sequence of MVP3-5 (residues 102-274 of human MVP), wild type (Q14764 102-274): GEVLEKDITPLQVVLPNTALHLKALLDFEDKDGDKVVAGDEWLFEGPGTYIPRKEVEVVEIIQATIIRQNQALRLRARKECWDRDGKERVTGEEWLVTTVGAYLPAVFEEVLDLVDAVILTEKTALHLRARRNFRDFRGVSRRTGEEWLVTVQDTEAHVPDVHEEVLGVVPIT

B1: MINT domain (residues 1562-1724 of human PARP4), wild type (domain or fragment)
chain: VCIQHWQDAVPWTELLSLQTEDGFWKLTPELGLILNLNTNGLHSFLKQKGIQSLGVKGRECLLDLIATMLVLQFIRTRLEKEGIVFKSLMKMDDASISRNIPWAFEAIKQASEWVRRTEGQYPSICPRLELGNDWDSATKQLLGLQPISTVSPLHRVLHYSQG
With B1, the binding result is on record as “binds”.
